Data on 1 substance can be found in patent US20210171576.

This series concerns the target Untagged human mitochondrial ClpP (HsClpP) (UniProt Q16740).

Chain of Untagged human mitochondrial ClpX (HsClpX) (chain, as listed by the source): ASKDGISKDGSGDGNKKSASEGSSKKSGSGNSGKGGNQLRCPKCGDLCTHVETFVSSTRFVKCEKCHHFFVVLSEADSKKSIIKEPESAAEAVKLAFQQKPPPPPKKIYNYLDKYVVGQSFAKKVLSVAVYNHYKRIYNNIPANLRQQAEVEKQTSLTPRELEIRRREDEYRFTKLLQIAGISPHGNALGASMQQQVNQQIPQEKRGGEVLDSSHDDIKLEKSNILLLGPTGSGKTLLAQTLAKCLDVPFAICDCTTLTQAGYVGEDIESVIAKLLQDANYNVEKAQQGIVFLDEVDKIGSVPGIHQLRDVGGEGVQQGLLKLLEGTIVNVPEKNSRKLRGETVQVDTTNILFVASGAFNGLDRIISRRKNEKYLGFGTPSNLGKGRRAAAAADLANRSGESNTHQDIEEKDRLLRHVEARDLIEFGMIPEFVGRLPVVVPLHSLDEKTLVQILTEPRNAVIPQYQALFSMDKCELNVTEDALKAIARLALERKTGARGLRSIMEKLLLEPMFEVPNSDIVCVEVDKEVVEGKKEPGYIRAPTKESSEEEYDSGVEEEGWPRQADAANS
Chain of Untagged human mitochondrial ClpP (HsClpP) (Q16740 other isoform, or with tags, fused parts or gaps): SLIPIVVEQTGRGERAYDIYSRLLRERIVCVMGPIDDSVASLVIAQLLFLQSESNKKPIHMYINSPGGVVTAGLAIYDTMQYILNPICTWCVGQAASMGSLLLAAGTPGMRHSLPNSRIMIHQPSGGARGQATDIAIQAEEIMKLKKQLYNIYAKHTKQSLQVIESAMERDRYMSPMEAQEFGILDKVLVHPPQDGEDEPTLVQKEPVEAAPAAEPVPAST

For “Untagged human mitochondrial ClpX (HsClpX)”, the “Hill coefficient (h) of casein-FITC degradation by HsClpP with titrated HsClpX” value is “mild positive cooperativity (h=1.25) in HsCIpP-binding”, the “K0.5 (microscopic apparent dissociation constant). Hill fit of initial rates of casein-FITC degradation; HsClpX titrated 0-18 µM against 3 µM HsClpP” value is recorded as “a K0.5 of 5.7 µM” and the “Vmax of casein-FITC degradation by HsClpP with titrated HsClpX” value is “a Vmax of 6.88 RFU.s^-1”.
